Test results: US11466067B2 (priority 2019, dated 2022)

Key:
enterocytes = experiment: Vesicular trafficking co-localization (Rab7, Rab11, LMAN1, LAMP1) in jejunum; assay type: in vivo, rat
Source text: The timing of LMAN1 redistribution to the basal compartment coincides with the presence of hIL-10 being ultimately detected in non-polarized cells within the Lamina propria where it was not associated with LMAN1.
Ultimately, the delivery construct is delivered to lysosome-like structures within a large fraction of cells within the Lamina propria, an outcome that would limit its systemic distribution following A-B transcytosis.

[1] = Purification with and without sulfitolysis: SEC-HPLC forms, yield, dimer recovery
Method: Refolding in both processes was carried out at 4° C. The refolding solution used in both processes contained 1 mM reduced glutathione, 0.5 mM oxidized glutathione, 1M Arginine-HCl, 250 mM sucrose, 100 mM Tris pH 8.5 at 4° C., and 2 mM EDTA.

circulating cytokines = experiment: Plasma cytokines by MSD 10-plex, oxazolone dose response; parameters: species or system mice; settings: mouse, in vivo
Source text: Plasma cytokines were quantified using the V-plex Proinflammatory Panel 1 Mouse Kit. Plasma IL-1Ra was quantitated by sandwich immunoassay using an antibody pair from the Mouse IL-1Ra/IL-1F3 DuoSet ELISA (R&D Systems #DY480), Streptavidin SULFO-TAG Labeled (MSD #R32AD-1), Multi-Array 96 Plate Pack, SECTOR Plate MSD #L15XA-3 and Read Buffer T (4×) (MSD #R92TC-2). Samples were read on the QuickPlex SQ 120 plate reader (Meso Scale Discovery, Rockville, Md.).

[2] = Pan-colonic administration via sigmoidoscopy in NHP: plasma PK/PD; assay type: in vivo, cynomolgus monkeys
Method: IL-10 delivery construct solution (at concentrations of 0.1, 0.3 and 1.0 mg/mL for the low, mid and high-dose groups respectively) was administered via the rectal route using sigmoidoscopy and a syringe connected to a spray nozzle with a 360° spray pattern. Serial biopsy samples were collected by sigmoidoscopy (pre-dose, 0.25, 0.5, 0.75, 8 and 24-28 hours post dose). Serial plasma samples from 0 min pre-dose to between 24-28 hours post-dose were collected for analysis for the IL-10 delivery construct.

[3] = Oral gavage 10 mg/kg in mice: hIL-10 and IL-1Ra time course; assay type: in vivo
Source text: The inflammatory actions of IL-1β are modulated by the presence of a specific receptor antagonist known as IL-1Ra. Increased serum IL-1Ra levels can be induced by IL-10, which can occur in the absence of a pro-inflammatory state. With an appreciation of uncertainties associated with how much and when biologically active delivery construct is released from the stomach to reach the small intestine as well as the timing of its uptake and actions within the Lamina propria following oral gavage, we examined IL-1Ra to function in non-inflamed mice as a biomarker of the IL-10 delivery construct's actions.
To test this question, the delivery construct was directly deposited onto the luminal surface of colonic intestinal mucosa in a nonhuman primate model.

[4] = Intracolonic spray in NHP: IL-1Ra, pSTAT3, construct, IL-10; assay type: in vivo, cynomolgus monkeys
Source text: This was achieved using a colonoscope with an associated spray nozzle. In this way, refined information for onset and duration of IL-1Ra induction could be obtained at specific local doses. […] The variability of pSTAT3/total STAT3 detected was consistent with tissue capture and stability challenges in this in vivo model. Measurement of tissue delivery construct levels had similar tissue capture and stability challenges, showing low and variable amounts in the tissue samples collected (FIG. 143). […] Since IL-10 can induce cells to produce more IL-10, we also looked for induced IL-10. […] It is important to note, due to the similarity of human and NHP IL-10, that ELISA values shown could also include hIL-10 that has somehow separated from the carrier domain of the delivery construct molecule. While this cannot be ruled out, no other data supports this as an outcome and it appears likely that the majority, if not all, tissue and serum IL-10 measured represents an NHP source.

[5] = Phase 1a single ascending dose in healthy male volunteers; assay type: in vivo, human; settings: 60 and 120 mg
Method: In part B of the study, early data was gathered on the safety and tolerability, pharmacokinetics, pharmacodynamics and early clinical response following multiple ascending doses of the IL-10 delivery construct in Ulcerative Colitis (UC) patients (Part B).
Part A consisted of a single-ascending dose (SAD) escalation in healthy male volunteers. Six cohorts consisting of orally administered single ascending doses were conducted. At each dose level, 6 subjects were enrolled, randomized 2:4 to receive a single dose of placebo or the IL-10 delivery construct on day 1. The doses selected were 1 mg, 3 mg, 10 mg, 30 mg, 60 mg, and 120 mg.
Pre-clinical models have identified peripheral IL-1Ra production as a marker of IL-10 engagement to IL-10R in mucosal lymphocytes. To determine if the IL-10 delivery construct was actively transported across the epithelial cell lining into the Lamina propria and able to interact with lymphocytes, the levels of IL-1Ra induction was assessed.

B1: IL-10 delivery construct: recombinant homodimeric fusion protein: N-terminal methionine, cholix386 domain, polyGlySer spacer, recombinant human IL-10 (protein)
chain: MVEEALNIFDECRSPCSLTPEPGKPIQSKLSIPSDVVLDEGVLYYSMTINDEQNDIKDEDKGESIITIGEFATVRATRHYVNQDAPFGVIHLDITTENGTKTYSYNRKEGEFAINWLVPIGEDSPASIKISVDELDQQRNIIEVPKLYSIDLDNQTLEQWKTQGNVSFSVTRPEHNIAISWPSVSYKAAQKEGSRHKRWAHWHTGLALCWLVPMDAIYNYITQQNCTLGDNWFGGSYETVAGTPKVITVKQGIEQKPVEQRIHFSKGNAMSALAAHRVCGVPLETLARSRKPRDLTDDLSCAYQAQNIVSLFVATRILFSHLDSVFTLNLDEQEPEVAERLSDLRRINENNPGMVTQVLTVARQIYNDYVTHHPGLTPEQTSAGAQAGGGGSGGGGSGGGGSPGQGTQSENSCTHFPGNLPNMLRDLRDAFSRVKTFFQMKDQLDNLLLKESLLEDFKGYLGCQALSEMIQFYLEEVMPQAENQDPDIKAHVNSLGENLKTLRLRLRRCHRFLPCENKSKAVEQVKNAFNKLQEKGIYKAMSEFDIFINYIEAYMTMKIRN
modifications: homodimer
co-localization with LAMP1 in polarized enterocytes (enterocytes; 1-15 min post ILI): Limited LAMP1/delivery construct co-localizations
co-localization with LMAN1 (enterocytes; 1-15 min post ILI): co-localized with redistributing LMAN1
co-localization with LAMP1 in non-polarized cells of Lamina propria (enterocytes; 10 min and 15 min post ILI): extensive LAMP1/delivery construct co-localizations
co-localization with Rab7+ vesicles (enterocytes; enterocytes): predominantly in the apical vesicular compartment
co-localization with Rab11+ vesicles (enterocytes; enterocytes): mostly in the basal vesicular compartment
Dimer Purity (%) ([1]; No Sulfitolysis of SIB (97 mL Capto Q)): 84%
Dimer Purity (%) ([1]; Sulfitolysis of SIB (97 mL Capto Q)): 74%
plasma cytokines, MSD 10-plex, vs Vehicle (circulating cytokines): no significant differences
aggregation during freeze/thaw or at 1 week at 4 °C (20 mg/mL, any condition tested): did not show any significant increases in aggregation
stability with respect to aggregation (initial lyophilization feasibility study): more stable at pH 7.5 with sucrose and glycine
plasma construct concentration relative to total IL-10 ([2]; 3 mg and 10 mg): 10 fold lower
time to detection of total IL-10 in plasma ([2]; 1, 3, 10 mg pan-colonic): ≤ 15 min
systemic IL-6 ([2]; 3 and 10 mg): moderately induced
systemic IFN-γ, IL-1β, IL-2, IL-8 ([2]; cynomolgus monkey, in vivo): did not lead to an increase
time of maximal plasma IL-1Ra ([2]; cynomolgus monkey, in vivo): 3 to 4 h
hIL-10 in small intestinal lysates relative to colonic lysates [3]: ~10 fold higher
serum IL-1Ra ([3]; 4 h): significantly increased
serum levels of the delivery construct ([4]; cynomolgus monkey, in vivo): below the assay detection limit
tissue IL-10 levels ([4]; within 15 min): dose-dependent and transient increases
IL-1Ra induction at high dose [5]: loss of immunomodulatory activity
